In article doi:10.1101/2025.01.11.632520, “A De Novo Design Strategy to Convert FAcD from Dimer to Active Monomer” (bioRxiv, 2025):

Biological target: the molecule itself
Assay: native MS; proteins buffer-exchanged into 0.2 M ammonium acetate (pH 7); Q-Exactive Plus Orbitrap, collision voltage 20 V; room temperature; self-association (dimer vs monomer)

B1: Fluoroacetate dehalogenase (FAcD), wild-type (enzyme, UniProt Q6NAM1 1-302, looked up)
chain: MPDLADLFPGFGSEWINTSSGRIFARVGGDGPPLLLLHGFPQTHVMWHRVAPKLAERFKVIVADLPGYGWSDMPESDEQHTPYTKRAMAKQLIEAMEQLGHVHFALAGHDRGARVSYRLALDSPGRLSKLAVLDILPTYEYWQRMNRAYALKIYHWSFLAQPAPLPENLLGGDPDFYVKAKLASWTRAGDLSAFDPRAVEHYRIAFADPMRRHVMCEDYRAGAYADFEHDKIDVEAGNKIPVPMLALWGASGIAQSAATPLDVWRKWASDVQGAPIESGHFLPEEAPDQTAEALVRFFSAAP
notes: Fluoroacetate dehalogenase (FAcD), gene Rpa1163, residues 1-302; His6-SUMO tag cleaved off by ULP1; Homodimer by native MS; also called WT; WT-Di; source: E. coli BL21(DE3), purified (nickel column, SEC); not shown: His6, N-terminal, cleaved; SUMO, N-terminal, cleaved
With B1 the “stoichiometry N” value was 2.
